# Measured values from paper PMC12117103, “Cryo-EM Structure of the relaxosome, a complex essential for bacterial mating and the spread of antibiotic resistance genes” (Nature Communications, 2024).
# B1: TraM (F plasmid) (natural protein, E. coli F plasmid, UniProt P10026 1-127, looked up)
# chain: MAKVNLYISNDAYEKINAIIEKRRQEGAREKDVSFSATASMLLELGLRVHEAQMERKESAFNQTEFNKLLLECVVKTQSSVAKILGIESLSPHVSGNSKFEYANMVEDIREKVSSEMERFFPKNDDE
# notes: TraM accessory protein of the F plasmid; synthetic traM gene in the NcoI and HindIII sites of pET28a; In the relaxosome only an AlphaFold model was docked into low-resolution density; also called TraM tetramer; source: E. coli C41 (DE3), purified (ammonium sulphate, HiTrap Heparin, resource Q, HiTrap Blue, Superdex 200 SEC)
# Biological target: the molecule itself
# Assay: SEC; last purification step of TraM on Superdex 200 Increase 10/300 in 20 mM Tris-HCl pH 7.5, 100 mM NaCl
protein,measurement,value
B1,binding result,binds
